This passage reports virus titers results from patent publication US20240228980A1.

The target of this experiment is PB1 (influenza A/WSN/1933 polymerase subunit) (influenza A virus A/WSN/1933) (UniProt P03430). The experiment can be described thus: cell-based or functional assay.
Sequence of PB1 (influenza A/WSN/1933 polymerase subunit) (influenza A virus A/WSN/1933) (P03430 whole entry): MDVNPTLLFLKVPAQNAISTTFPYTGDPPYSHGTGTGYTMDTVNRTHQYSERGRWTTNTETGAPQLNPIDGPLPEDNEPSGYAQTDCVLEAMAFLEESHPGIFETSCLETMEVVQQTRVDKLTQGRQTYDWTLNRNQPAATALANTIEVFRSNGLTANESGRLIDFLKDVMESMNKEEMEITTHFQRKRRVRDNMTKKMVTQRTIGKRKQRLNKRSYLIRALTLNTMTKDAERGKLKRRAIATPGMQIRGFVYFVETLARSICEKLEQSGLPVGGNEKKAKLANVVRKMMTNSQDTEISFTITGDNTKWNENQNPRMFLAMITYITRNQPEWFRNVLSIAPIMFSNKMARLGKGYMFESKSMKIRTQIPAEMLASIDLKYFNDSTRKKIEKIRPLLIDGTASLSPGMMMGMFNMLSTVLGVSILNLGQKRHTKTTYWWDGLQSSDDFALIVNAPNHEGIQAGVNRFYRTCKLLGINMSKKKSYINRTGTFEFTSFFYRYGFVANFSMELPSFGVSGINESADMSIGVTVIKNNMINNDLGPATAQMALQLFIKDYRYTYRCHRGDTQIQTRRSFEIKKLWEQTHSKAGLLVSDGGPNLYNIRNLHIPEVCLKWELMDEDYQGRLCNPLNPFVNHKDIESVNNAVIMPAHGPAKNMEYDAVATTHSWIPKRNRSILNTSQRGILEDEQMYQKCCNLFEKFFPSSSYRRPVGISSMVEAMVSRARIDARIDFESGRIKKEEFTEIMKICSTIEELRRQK

PB2 195/2223 DPR: the virus titers came to 50%.
Take “PB2 416/2189 DPR (from UniProt P03427 1-131)”: the virus titers worked out at 50%.
